This is an account of results in the NTF2 design screens of Basanta et al. (2020).

A short description of the data set: protease stability score; higher = more stable; yeast display proteolysis, trypsin and chymotrypsin.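 Note: relative to predicted unfolded state with 0 unfolded-like and 1 meaning tenfold more protease.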
For “DEFHHSVELAIRIIFEILRTGDEHHMDTMADPDVRIIIGDKHNVGRELVKDVMRRLVTEWRIRHWEIKNSHLIGDKLLVDSHVEVEVGDFNLRTDVHLVFTKINGRWTLHSHHID”, the protease stability score came out at 1.09. As for “DEFHHWYERVIQEFDHAVETGNEHRIRELLDPNVRIIIDGQDLHGREDMIHLISEIRVSITDRRERSFRPVGDKINLLMRVDQQVFVDGQTEQVDTEVRWIIIKVNGVWLIRRIEVI”, the protease stability score was 1.47.

“DEFKELTTEFIKQFLDNIRTGNEELLRELADPHVRFLVNGRELHGRESFVETFRHWRMKDWEIRDVEVYGEKLVMDGHVRVNIDGREDSVRVRLYVDKIDGQWHHRRFEFN”: the protease stability score is 1.76. On to “DEFNEATRRALHEEMKTRHTGDEDLFHRLADPDVRVIYGDKHIHGREEVVHWLREIRVKTHHLEIRRSHFQGEKAHVDGKLNGDFIFDGRTFTVQIHVEFIMIKWNGQWRIEMLRFE”, for which the protease stability score came to 1.09. With “DEFQHMAELASTLFQRSNHTGDEHSLQEMLDPNVRVIVGDKEFHGMEELLKTLRKELEILGVQRIETEVHQVNVQGNKINVDLILHVNGRERRIHLWAHKINGRWITERIEVR” the figure was 0.922; with “DEFREIIRRAMEIYRHSERTGDEDTIREMVDPDVKLDIDGKEIVGWERLLEFLTRVDHIHLHLNNMKLQGDYVIHDGELRLNIDGRNISTRIVIIAEKVNGRWHMKHVEFR”, 1.24; with “DEFRKDADRALHMFEDKIRTGNWRELDKLLDPHVRFEYGDKIHHGREQFKYFMDRYDHITARDHKIDHVEFQGDYLHMDTTVDGELFIDGKNIRIVNKSKLVLLKVNGRWTMHFLSHD”, 0.818. With “DEFRRDALETHEDEIRDYLTGDWKSSKHLADPHARFVVGDKHYHGWHEMVRLVKENQEKFGIDHSEFRIHDSHVQGNKVIMDVEIHLTFNGKKIHTRSTILLVKINGVWLNTEIHID” the figure was 0.072; with “DEFTELTREVLHRIVTHLRTGNEEELARLMDPNARLEINGKEFHGREEILRLIHELEKKMGIKHVDMVIRRDTIIGDYARVNGEIIIIVDGKEIRLDTEIFILKIDGKWFIRTESIR”, 1.21. Sequence “DEHDEFLEISFKILKKTDDTGDERESRKLADPDARLHVNGVDFHGWEDFKKIMVDLGWRIEEIRIEHIRLVGDKIIIHERVRLRVGDKKRDLHFTIIALKINGRWHLRELHIE” came in with a protease stability score of 1.38. With “DEHDEHYHRLMKVLVDMMATGDWRTIHELMDPDARSDIDGREVHGREEVIRVIKEFFDKFKGARIEIRLRRWDTINGRIDVRVQLDVNFNGRTEQYDTRIHNVVVDGVSEELTVEVK” the figure was 1.39; with “DEHDELIERIARIYFEDELTGDWDSMMRLMDPRTRDDYNGKERHGWEEVETFFEELRKKFKGMKFHLEHLDVIGNKVHIIARWNVNGRHVQVHIDIIAFDGRVKSFSERVDIR”, 1.15; with “DEHDEMSQIASEILRTVIETGNENELERMVDPHVKSIVNGRTHHGRETLSELKKKLGWERVHNRIHHVEIVGDKVVVRGSIHWNGRDVRVEFIITKVDGRWIIEEIRFH”, 1.07.

For “DEHDERMESVLRHLWHNWKTGDEDRLAELADPNTRTNINGKNFHGWEYMVREFSRFLKHIRIQDLKIRDFRVIDGRAISDVIVHGEVDGKDIDVKTRVELIIINGRFHTLSFTFE”, the protease stability score worked out at 1.3. “DEHDERQHKIHRRFFEAYMTGNEDEMLQLADPNVRLHIGDKDLIGRELFSTWVRELHDRFPGMRIHIEDEDIQGEKSHHRVRIHVDGVTRNVRINQDWYNGRLREMSIDIR” registered a protease stability score of 0.353.

The sequence “DEHDESVRTAWEYYKRVIETGDEDISKKLADPHMKFEFENHSIHGWENIYRELTRLMREMRIHHVEIEHFRVYGDFVEIHIRVDGTVNGRRIITKMDLYITKIDGKWYLHSRRIE” displayed a protease stability score of 0.543. On to “DEHDEYLHHLLKVLWELIMTGDEHTFERLADPNVRLEVGNYFHVGRENIREMWKFLHDLLGVDHFRLHIRDLRVFNGVADAEYELRLNQGDKETRIEVRIYVHIVNGVLKSIRIETH”, for which the protease stability score is 1.44.

Sequence “DEHDHILKRLSEELLHMMETGDEDALAELFDPHARMEYNGQEIHGRRDVERIRREILEKLGVDKIHTEVKEERFVGEKLEVHTHLHVDGVHFTVRIHWVKFNGRWVIRTLHIE” registered a protease stability score of 1.38. For “DEHDKETKEMLERFLEATETGNEKHSEELFDPRTRMEFDGVEIHGRETITKILTELWERADHIQFVLHDLRLVDGRVELDMRIRLHYDGQEYRRRSKVLLWKIDGRWVIRSERYE” the value was 1.99. Turning to “DEHDKFVEEMARRHIRNLVTGDWEEQSRLMDPHVRIEIDINGRKREYHGREDWKYWLDELKRQFDHYEVRLRDFRIQGEYALFRLEESYIIGDKVIEQETELHIDVFNGRIRRVSFSVK”, the protease stability score came out at 0.956. For “DEHDKHVHEMAERIMRSWHTGDEDTFHKMADPNVRVEIFVNGKNIIRHGREVWKHELERYDHVELRIKSMDAQGDFVHIDGELTINIGDKKHSTTLRIELEFINGRLKRISVHIH” the value was 1.05; for “DEHDKLLKELSERMFELWETGDEDRLHKLADPHALSRVGEFSIHGMRNHMEWLREWLRRVKNATIHVRDVDLQGNKSRFDHELIIDGVELKVIDNIVLVNGRIKEIRIEIN”, 0.027.

Regarding “DEHDKLMKDIAKLLLELWKTGDEEIFQHLMDPDTRMDVNGVQLHGMELIVKILRDEIHKIKNVKVLDKRNTVIGDKIHLDVEIVIGDKRIRMKLDVIVVNGRIKVFEIHTE”, the protease stability score worked out at 1.36. For the sequence “DEHDQHLKEWLDILLEVISTGDESRLQEMLDPNARLDVNGRKIHGRDEVLRAFHDHLDRFDHLHDLRIEHSNTVDGKAYIEGRDDGVVDGKRVFLRTRYFIITVNGKVHEVKIEID”, the protease stability score worked out at 1.92. For “DEHDRDARRFTDILLEAFMTGDEDLSHKMLDPNMRLHINGKIHHGRELATELLHEMRIERLVIEDYRIHYQGEKVHVTLHGRLHGRVDGKEHNSEVNIFINIEKVNGKWIVRSFTLKIH” the value was 1.47; for “DEHEDDARRMWELLEHDLQTGDEESIHRLVDPNAKVVYGDKEFVGREVLLRFASEWRVHLMHLDDIKIRTYGDKIDIDTTTITNGEFNGRKHVTRTHLRVHFEKVNGKWYVREVIIEIH”, 1.31. In turn, “DEHEDHVLEVFRIILEILLTGDFREWRRLADPTVRLEFNGREYHGRDEILEFLTQHIRHWRLKHIHIDNYEVYDGRIEVHGHIRFTFNGKEHIIETRIIINVFDGRLHDEQYITH” came in with a protease stability score of 1.53. With “DEHEDNLQHLIHVMTELFITGDWKELRHLIDPNALLHINGKDVHGWHLALEHIVRWREEMGVKHSHVERIHLQGDKTHLHMREHFNGRTVELEIRIIFVNGRLESHEMRIRNN” the figure was 0.822; with “DEHEEAFREFLRLLLESLRTGDEHTLKRLIDPHARIDIDGQEFVGMEHLEHILKNMIKHIRYEDIEIEHFEFINGQVRFKTRYHGRINGKRDTLHIHIIITKINGKWVLEQLEFR”, 2.15. “DEHEEALEEFLTEMIENIKTGDWHSELKLMDPHVRILFDGVIFHGREFFFQWLRHLLQRADHVNFTIDDKKYQGDKMVIETTFHLIINGQRIERYTVLLARKVNGRWYIEEVRLH” had a protease stability score of 2.33. With “DEHEEASKLAIELLLTLERTGDEDKLRKLVDPNVRYDINGRELHGWEFMHRMIRHLRTEHVTIERVHVQGDWIHIDRILNVNVNGKEINIRTKINAQKINGVWIEREVEIQ” the figure was 1.09; with “DEHEEDARRDLEKLARSLKTGDEDSLRTLFDPNTRNDVNGKDFIGWEELLRILREWRFHDMKVEDLEVQGNKVISHVRLDGTFDGRRDEMHVEIRAEKVNGRWRIRSYIVR”, 1.77.

Regarding “DEHEEDMERFLRELLDHWRTGDEDVIRELMDPHVKVDINGKIHHGREEAVHFLIEMRFRHFHVHDLRVQGEKADVDGRTHMEYNGRTVDQRITIHLVKIDGKWREKSITLE”, the protease stability score came out at 1.24. “DEHEEDVSKFTKMWEEDIRTGDEDSLYKMIDPHALLDFNGKEIIGREEVMHILHEELRELRIHNVHTHDIKVQGNKVNLNIRFNIEINGRIYDLQYKYDWRKINGRWFAHSEVIR” showed a protease stability score of 0.764.
